Measurements taken from patent US20120207777A1 (Novartis, published 2012).

Target: the molecule itself
Test: gel filtration and gel analysis with and without DTT (self-association)

B1: Recombinant His-tagged AcfD (orf3526) from strain IHE3034 without a leader peptide (other)
chain: CDGGGSGSSSDTPSVDSGSGTLPEVKPDPTPTPEPTPEPTPDPEPTPDPTPDPEPTPEPEPEPVPTKTGYLTLGGSQRVTGATCNGESSDGFTFTPGNTVSCVVGSTTIATFNTQSEAARSLRAVDKVSFSLEDAQELANSENKKTNAISLVTSSDSCPADAEQLCLTFSSVVDRARFEKLYKQIDLATDNFSKLVNEEVENNAATDKAPSTHTSTVVPVTTEGTKPDLNASFVSANAEQFYQYQPTEIILSEGQLVDSLGNGVAGVDYYTNSGRGVTDENGKFSFSWGETISFGIDTFELGSVRGNKSTIALTELGDEVRGANIDQLIHRYSTTGQNNTRVVPDDVRKVFAEYPNVINEIINLSLSNGATLDEGDQNVVLPNEFIEQFKTGQAKEIDTAICAKTDGCNEARWFSLTTRNVNDGQIQGVINKLWGVDTNYQSVSKFHVFHDSTNFYGSTGNARGQAVVNISNSAFPILMARNDKNYWLAFGEKRAWDKNELAYITEAPSIVQPENVTRDTATFNLPFISLGQVGEGKLMVIGNPHYNSILRCPNGYSWGGGVNSKGECTLSGDSDDMKHFMQNVLRYLSNDIWQPNTKSIMTVGTNLENVYFKKAGQVLGNSAPFAFHEDFTGITVKQLTSYGDLNPEEIPLLILNGFEYVTQWSGDPYAVPLRADTSKPKLTQQDVTDLIAYLNKGGSVLIMENVMSNLKEESASSFVRLLDAAGLSMALNKSVVNNDPQGYPDRVRQRRATGIWVYERYPAADGAQPPYTIDPNTGEVTWKYQQDNKPDDKPKLEVASWQEEVEGKQVTRYAFIDEAEYTTEESLEAAKAKIFEKFPGLQECKDSTYHYEINCLERRPGTDVPVTGGMYVPRYTQLNLDADTAKAMVQAADLGTNIQRLYQHELYFRTKGSKGERLNSVDLERLYQNMSVWLWNDTKYRYEEGKEDELGFKTFTEFLNCYANDAYAGGTKCSADLKKSLVDNNMIYGDGSSKAGMMNPSYPLNYMEKPLTRLMLGRSWWDLNIKVDVEKYPGSVSAKGESVTENISLYSNPTKWFAGNMQSTGLWAPAQQDVTIKSSASVPVTVTVALADDLTGREKHEVALNRPPRVTKTYTLEANGEVTFKVPYGGLIYIKGDSKDDVSANFTFTGVVKAPFYKDGEWKNDLDSPAPLGELESASFVYTTPKKNLEASNFTGGVAEFAKDLDTFASSMNDFYGRNDEDGKHRMFTYKNLTGHKHRFTNDVQISIGDAHSGYPVMNSSFSTNSTTLPTTPLNDWLIWHEVGHNAAETPLNVPGATEVANNVLALYMQDRYLGKMNRVADDITVAPEYLDESNGQAWARGGAGDRLLMYAQLKEWAEENFDIKQWYPDGELPKFYSDRKGMKGWNLFQLMHRKARGDDVGNSTFGGKNYCAESNGNAADTLMLCASWVAQADLSEFFKKWNPGASAYQLPGATEMSFQGGVSSSAYSTLASLKLPKPEKGPETINKVTEHKMSAE
notes: Expressed without the leader peptide; also called 3526 (his tag, leader peptide removed); not shown: His tag
B1: binds.
